According to patent US7067474B1, “Agents for treating human illnesses based on β-catenin, and the production and use thereof” (Max-Delbruck-Centrum fur Molekulare Medizin, priority 1998, dated 2006):
Where a chain is given by its changes, count along the chain named. “Also recorded” adds a separate entry of the source.

T1: APC (20 amino acid repeats) (Homo sapiens, UniProt P25054)
T1 construct: for the amino acids Ser1259Asp 1400 (APC 20 amino acid repeats); expressed in transfected cells; host or cells: yeast (two-hybrid, Matchmaker, Clontech)
T1 sequence (P25054 1253-1394 limits assumed): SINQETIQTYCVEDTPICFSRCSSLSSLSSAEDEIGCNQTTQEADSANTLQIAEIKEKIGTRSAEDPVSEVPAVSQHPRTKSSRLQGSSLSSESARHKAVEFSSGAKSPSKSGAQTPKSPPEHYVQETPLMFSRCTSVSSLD

T2: APC (15 amino acid repeats) (Homo sapiens, UniProt P25054)
T2 construct: of human APC for the amino acids His1012–Glu1215 (APC 15 amino acid repeats); expressed in transfected cells; host or cells: yeast (two-hybrid, Matchmaker, Clontech)
T2 sequence (P25054 1006-1209 limits assumed): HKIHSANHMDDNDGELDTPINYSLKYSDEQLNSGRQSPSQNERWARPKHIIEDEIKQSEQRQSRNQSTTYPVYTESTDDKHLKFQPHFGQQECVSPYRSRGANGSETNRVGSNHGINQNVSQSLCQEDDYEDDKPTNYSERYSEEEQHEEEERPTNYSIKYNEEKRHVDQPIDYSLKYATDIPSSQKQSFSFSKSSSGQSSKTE

B1: Arg 274: human β-catenin mutant, Arg 274 substituted by alanine (arm 4) (protein)
chain: LHNLSHHREGLLAIFKSGGIPALVKMLGSPVDSVLFYAITTLHNLLLHQEGAKMAVALAGGLQKMVALLNKTNVKFLAITTDCLQILAYGNQESKLIILASGGPQALVNIMRTYTYEKLLWTTSRVLKVLSVCSSNKPAIVEAGGMQALGLHLTDPSQRLVQNCLWTLRNLSDAATKQEGMEGLLGTLVQLLGSDDINVVTCAAGILSNLTCNNYKNKMMVCQVGGIEALVRTVLRAGDREDITEPAICALRHLTSRHQEAEMAQNAVRLHYGLPVVVKLLHPPSHWPLIKATVGLIRNLALCPANHAPLREQGAIPRLVQLLVRAHQDTQRRTSMGGTQQQFVEGVRMEEIVEGCTGALHILARDVHNRIVIRGLNTIPLFVQLLYSPIENIQRVAAGVLCELAQDKEAAEAIEAEGATAPLTELLHSRNEGVATYAAAVLFRMSEDKPQDYKKRLSVELTSSLFRTEPMAWNETADLGLDIGAQGEPLGYRQDDPSYRSFHSGGYGQDALGMDPMMEHEMGGHHPGADYPVDGLPDLGHAQDLMDGLPPGDSNQLAWFDTDL
modifications: left off: large carriers; small tags and cut ends
B2: Arg 342: human β-catenin mutant, Arg 342 substituted by alanine (arm 5) (protein)
chain: B1 chain with A57R, R125A
modifications: left off: large carriers; small tags and cut ends
B3: Arg 469: human β-catenin mutant, Arg 469 substituted by alanine (arm 8) (protein)
chain: B1 chain with A57R, R252A
modifications: left off: large carriers; small tags and cut ends
B4: Lys 354: human β-catenin mutant, Lys 354 substituted by alanine (arm 6) (protein)
chain: B1 chain with A57R, K137A
modifications: left off: large carriers; small tags and cut ends
B5: Lys 345: human β-catenin mutant, Lys 345 substituted by alanine (arm 5) (protein)
chain: B1 chain with A57R, K128A
modifications: left off: large carriers; small tags and cut ends
B6: His 260: human β-catenin mutant, His 260 substituted by alanine (arm 3) (protein)
chain: B1 chain with H43A, A57R
modifications: left off: large carriers; small tags and cut ends

The molecules below were run against T3, LEF-1 (Mus musculus, UniProt P27782) (assay: yeast 2-hybrid: interaction of β-catenin mutants with LEF-1). Conditions: yeast 2-hybrid, alanine mutants.
T3 construct: the cDNA of LEF-1 for the amino acids 1–99; expressed in transfected cells; host or cells: yeast (two-hybrid, Matchmaker, Clontech)
T3 sequence (P27782 1-99): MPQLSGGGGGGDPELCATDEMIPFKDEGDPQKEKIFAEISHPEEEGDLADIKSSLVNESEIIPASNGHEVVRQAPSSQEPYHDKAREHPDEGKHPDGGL
Assay type: binding
Experimental: (§1) The mutagenesis of β-catenin in the armadillo repeats 3–8 was carried out by means of the “mutagenesis kit” of the company Clontech according to the producer's record and the mutants were checked by sequencing (FIG. 5). In all mutants the original amino acid was substituted by alanine. For analyzing the interactions the cDNA of human β-catenin (armadillo repeat 3 up to the C-terminal end of the protein) coding for the amino acids Leu218–Leu7 μl or its mutants was cloned into the fusion vector for the activation domain of Gal-4 (pGAD424, Clontech). The cDNA for the binding domains of the interaction partners was cloned into the Lex-A fusion vector BTM 116. To this end, the cDNA of LEF-1 for the amino acids 1–99, conductin for the amino acids Ala342–ARG465; of human APC for the amino acids His1012–Glu1215 (APC 15 amino acid repeats) and for the amino acids Ser1259Asp 1400 (APC 20 amino acid repeats) and E-cadherin for the amino acids Gin773–Asp884 (cytoplasmatic domain) were amplified with the respective primers PCR. The interaction of the Lex-A hybrids with β-catenin and its mutants was quantified by means of the β-galactosidase reporter activity in the yeast 2-hybrid system (report: “Matchmaker”. Clontech) (Tab. 2 and FIG. 6).

Molecule | Interaction With LEF-1, share of wild type β-catenin interaction
B1 | — (Interactions marked by — correspond to 60–100% of the wild type interaction)
B2 | — (Interactions marked by — correspond to 60–100% of the wild type interaction)

Same assay, conditions: β-catenin mutation, in words

Molecule | interaction with LEF-1/TCF-4
B3 | blocking the interaction; also recorded: no interaction with LEF-1/TCF-4

The molecules below were run against T1, APC (20 amino acid repeats) (assay: yeast 2-hybrid: interaction of β-catenin mutants with APC 20 amino acid repeats). Conditions: yeast 2-hybrid, alanine mutants.
Assay type: binding
Experimental: as §1

Molecule | Interaction With APC-20, share of wild type β-catenin interaction
B3 | — (Interactions marked by — correspond to 60–100% of the wild type interaction)
B1 | 40%
B2 | 29%
B4 | — (Interactions marked by — correspond to 60–100% of the wild type interaction)
B5 | 0%
B6 | 40%

Each molecule was assayed against T2, APC (15 amino acid repeats) (assay: yeast 2-hybrid: interaction of β-catenin mutants with APC 15 amino acid repeats). Conditions: yeast 2-hybrid, alanine mutants.
Assay type: binding
Experimental: as §1

Molecule | Interaction With APC-15, share of wild type β-catenin interaction
B3 | — (Interactions marked by — correspond to 60–100% of the wild type interaction)
B1 | — (Interactions marked by — correspond to 60–100% of the wild type interaction)
B2 | — (Interactions marked by — correspond to 60–100% of the wild type interaction)
B4 | 54%
B5 | — (Interactions marked by — correspond to 60–100% of the wild type interaction)

What follows are molecules tested against T4, conductin (Mus musculus, UniProt O88566) (assay: yeast 2-hybrid: interaction of β-catenin mutants with conductin). Conditions: yeast 2-hybrid, alanine mutants.
T4 construct: conductin for the amino acids Ala342–ARG465; expressed in transfected cells; host or cells: yeast (two-hybrid, Matchmaker, Clontech)
T4 sequence (O88566 343-465 limits assumed): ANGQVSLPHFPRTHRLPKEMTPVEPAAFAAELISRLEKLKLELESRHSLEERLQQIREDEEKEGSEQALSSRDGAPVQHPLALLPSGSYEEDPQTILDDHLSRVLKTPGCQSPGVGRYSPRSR
Assay type: binding
Experimental: as §1

Molecule | Interaction With Conductin, share of wild type β-catenin interaction
B3 | — (Interactions marked by — correspond to 60–100% of the wild type interaction)
B1 | 29%
B2 | 20%
B4 | 43%
B5 | 22%
B6 | 10%

Same assay, conditions: β-catenin mutation, in words

Molecule | interaction with conductin
B1 | no interaction with conductin

What follows are molecules tested against conductin amino acids Ala342-Arg465 fused to Lex-A (vector BTM 116) (UniProt P0A7C2) (assay: yeast 2-hybrid, β-galactosidase reporter; percent of wild type β-catenin). Conditions: not given.
Chain of conductin amino acids Ala342-Arg465 fused to Lex-A (vector BTM 116) (P0A7C2 other isoform, or with tags, fused parts or gaps limits assumed, form in doubt): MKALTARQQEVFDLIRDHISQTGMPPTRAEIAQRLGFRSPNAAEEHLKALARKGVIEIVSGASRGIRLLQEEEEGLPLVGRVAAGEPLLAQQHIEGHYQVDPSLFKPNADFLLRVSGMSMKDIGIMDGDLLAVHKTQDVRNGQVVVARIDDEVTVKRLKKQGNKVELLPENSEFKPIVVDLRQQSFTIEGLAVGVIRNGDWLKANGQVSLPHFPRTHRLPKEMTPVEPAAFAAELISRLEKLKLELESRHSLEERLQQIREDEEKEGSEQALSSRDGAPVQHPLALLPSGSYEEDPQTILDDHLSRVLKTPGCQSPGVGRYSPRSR

Molecule | share of the interaction with wild type β-catenin in percent [%]
human β-catenin (Leu218-Leu781) mutant Lys 394 to alanine, Gal-4 activation domain fusion (from UniProt P35222 218-781) | 42
human β-catenin (Leu218-Leu781) mutant Arg 457 to alanine, Gal-4 activation domain fusion (from UniProt P35222 218-781) | 36
